Consider three substances from patent publication US20150307863A1.

The assay deals with type IV collagen. Put plainly: cell-based or functional assay.
“Factor IX K5R variant (from UniProt P00740 47-461) (enzyme)” had a median NOD (numbers of disruption), saphenous vein bleeding model in hemophilia B mice 7 days after injection of 19 disruptions.
In the case of “Factor IX K5A variant (from UniProt P00740 47-461) (enzyme)”, the median NOD (numbers of disruption), saphenous vein bleeding model in hemophilia B mice 7 days after injection was 8 disruptions.
The substance “wild type Factor IX (human FIX) (from UniProt P00740 47-461) (enzyme)” yielded a median NOD (numbers of disruption), saphenous vein bleeding model in hemophilia B mice 7 days after injection of 14 disruptions.
